Read-outs that look alike come from different tables or passages of the source.
Columns and labels:
[1] = target: T1, HCV E2 ectodomain (eE2), full length, residues 384-656, genotype J6 (HCV genotype J6, N-linked glycans (fully glycosylated)); experiment: ITC
[2] = target: T1, HCV E2 ectodomain (eE2), full length, …; experiment: ITC; remark: listed apart in the source

B1: tamarin CD81 large extracellular loop (tCD81-LEL), residues 112-202, with plasmid-encoded N-terminal residues (domain or fragment)
chain: GFVNKDQIAKDVKQFYDQALQQAVVDDDANNAKAVVKTFHETLNCCGSSTLSALTTSMLKNNLCPSGSSIISNLFKEDCHQKIDELFSGKL
- Kd [1]: 175 nM
- dH [1]: -8.52 kcal/mol
- stoichiometry N [1]: 0.67
- Kd [2]: 37 nM
- dH [2]: -12.3 kcal/mol
- stoichiometry N [2]: 0.57

Source: paper PMC8542614 (Nature, 2021)
